Measurements taken from the supplement of paper PMC10724198.
± gives the standard deviation of the averaged measurements.

Test system: Saccharomyces cerevisiae
Assay: protein stability index of tFT-peptide fusion (C-terminal peptide) (PSI (0-1 scale)); higher = more stable (slower turnover)
Conditions: genetic background: wild type; temperature: 30 C
Experimental: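 Multiplexed protein stability (MPS) profiling in S. cerevisiae. Random 12-aa peptides (tFT-X12 library) are fused to the C-terminus of a sfGFP-mCherry tandem fluorescent timer, after mCherry and a GGGS linker. Cells are FACS-sorted into 8 mCherry/sfGFP bins and deep-sequenced. The protein stability index (PSI) is the read-weighted bin average, scaled from 0 (unstable) to 1 (stable). Only peptides with >10 reads are reported; cells were grown at 30 °C in SC-His with glucose.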
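Further: PSI is a weighted mean of sequencing reads over stability bins, variants kept only with over 10 reads, mCherry proximal and sfGFP distal, peptide attached via GGGS linker.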

Sequence | protein stability index
DRFPGLILVSFP | 0.73 ± 0.05
PPARIFRSLPTP | 0.711 ± 0.047
CCKRWICLLRRK | 0.646 ± 0.012
DALGRSNGPPRV | 0.673 ± 0.027
PVPRRPLLPLPP | 0.663 ± 0.02
YNLASGIEVPID | 0.664 ± 0.013
HPLVASRLSPFP | 0.761 ± 0.07
GGVGSCLVLSAR | 0.668 ± 0.036
KPPNRQCLYDAL | 0.721 ± 0.094
RGWWVRGGVLWC | 0.677 ± 0.048
SHPPPPPHTPPS | 0.736 ± 0.02
GYAGAIMAGYDP | 0.656 ± 0.033
RRKYIFRMIYPR | 0.658 ± 0.026
FFRWDSKHDILV | 0.732 ± 0.064
IGFGPVSCARLF | 0.679 ± 0.11
PYFLLLVSIPPS | 0.525 ± 0.0056
YFFQAFLLRTPL | 0.642 ± 0.018
YSPSPPSFAFSS | 0.801 ± 0.079
TRYIRKSKTKGA | 0.643 ± 0.014
CPHSLDTFVSKF | 0.704 ± 0.066
SRPSPPPRRPLG | 0.759 ± 0.067
FGRSHPFWVVDV | 0.697 ± 0.025
RCQYRRTMSITI | 0.635 ± 0.034
VSPTGRRGYGRS | 0.66754 ± 0.00015
TPPRLLLPAATT | 0.7244 ± 0.0061

Sequence | protein stability index
MKKVQENIKGKH | 0.717 ± 0.11
SFPLSPAFPSFL | 0.744 ± 0.025
QFLWCFRPCCCS | 0.584 ± 0.081
PLPVLLLPGHLP | 0.733 ± 0.054
RMLHYCTYSLLL | 0.71 ± 0.079
ATLIGIPPSLSA | 0.6643 ± 0.00067
LARGGAAIGGES | 0.729 ± 0.086
LYAHVPSYRVSA | 0.593 ± 0.058
PLPFLPPPPCPP | 0.696 ± 0.036
LPGSLISPSSPP | 0.721 ± 0.021
PGAHPVTLTIRL | 0.647 ± 0.027
LPPLPPRVLFNL | 0.5604 ± 0.00084
KNIERKKNTKIR | 0.714 ± 0.017
LCDLGLMLFPFV | 0.666 ± 0.032
RFPPPPPPPPLL | 0.718 ± 0.078
VWSSCAGDVLFD | 0.734 ± 0.039
YFPGILFGAIFS | 0.668 ± 0.07
SVSMEGCVSVRG | 0.7009 ± 0.0036
PSSPPPPPLSPL | 0.664 ± 0.017
PPLPLPPPIRPP | 0.6388 ± 0.0037
SGKGRRLVLGSS | 0.6895 ± 0.0039
RVPLFPIKMGLG | 0.591 ± 0.035
KKKKKKKNRETK | 0.655 ± 0.042
SCGWRGGWWVMG | 0.691 ± 0.072
VNYRVWRKRGGR | 0.644 ± 0.057

Sequence | protein stability index
SVWLISPRPLSV | 0.5639 ± 0.0032
CVSRLIPGDKHE | 0.67 ± 0.032
SVAAGCGHGGGG | 0.657 ± 0.011
EKSKNQKPHAAR | 0.633 ± 0.0088
RKKIRKNITQQP | 0.692 ± 0.052
LPRPSALLLRSL | 0.5 ± 0.12
PPFPPPPRPPSS | 0.645 ± 0.036
VCSRGVCGFLSG | 0.67 ± 0.01
TYKNTVTRTKAY | 0.658 ± 0.02
MYRLSFAAGRGS | 0.688 ± 0.016
SLAFLPPSLSSS | 0.713 ± 0.056
AGVDKWLMCEVS | 0.695 ± 0.034
PQVGWFCNRLEV | 0.836 ± 0.17
KKKKKKRQKNTK | 0.691 ± 0.03
FLSWTAYRPSST | 0.682 ± 0.0075
RLPPGRPPPPPP | 0.602 ± 0.08
VFGAAGVRFFVG | 0.58 ± 0.022
ICYGIHYAQRGS | 0.646 ± 0.069
PAPPHPPFPLLP | 0.705 ± 0.018
GGLRGERAGTDG | 0.637 ± 0.02
VMKILQVGDVYN | 0.752 ± 0.021
PYHTITPKPLQR | 0.677 ± 0.049
PHPPLPPLLPPA | 0.741 ± 0.082
PQNTNNPENGHC | 0.667 ± 0.04
GGGGVVGGLLCS | 0.761 ± 0.027

Sequence | protein stability index
PRVCSCFLPTRP | 0.711 ± 0.01
LSILVGDREGSV | 0.753 ± 0.13
FLRKHVLRLRPP | 0.594 ± 0.03
GFGKVIMEIESI | 0.715 ± 0.043
CGVGGVRCGLLG | 0.667 ± 0.029
GCGHVFEVNYEC | 0.6206 ± 0.0053
GLGGPYNSHMFT | 0.991 ± 0.013
GGGGLGTAVVGV | 0.6748 ± 0.0024
SSSPPPPSLAPP | 0.693 ± 0.0025
PKKREKKKKKEK | 0.66 ± 0.073
LLGRRSHTPDEP | 0.723 ± 0.013
PSPVPSLPPFLP | 0.745 ± 0.13
SCLPSDRLTYLP | 0.714 ± 0.014
PPSPLPSPPPTF | 0.718 ± 0.025
TPSLLPSPPFPL | 0.733 ± 0.02
EKYASINSSKPP | 0.671 ± 0.068
GKSHLGGSLTVL | 0.671 ± 0.034
CPSHPDCFPDRL | 0.6792 ± 0.0039
APWSQLRSPPAL | 0.769 ± 0.037
PAPSYHPVSPTA | 0.713 ± 0.0096
PLFLLLPALSIP | 0.595 ± 0.029
PSMLFPRTLSPL | 0.6963 ± 0.0056
GIGGYACHFYVW | 0.673 ± 0.012
